These results are taken from the Immune Epitope Database (IEDB).

Assay [1] concerns the target HLA-A*32:01. Put plainly: IEDB peptide-MHC binding, purified MHC/competitive/radioactivity; filed as Kd, often an IC50 or EC50 that approximates it; ≥ and ≤ were set here for values at or beyond the usual limits of such assays.
In assay [2] the target is HLA-A*02:01. Put plainly: IEDB peptide-MHC binding, purified MHC/competitive/fluorescence; ≥ and ≤ were set here for values at or beyond the usual limits of such assays.
The target of assay [3] is HLA-A*24:02. Described as above.
Assay [4] concerns the target HLA-A*01:01. Put plainly: IEDB peptide-MHC binding, purified MHC/competitive/radioactivity; filed as Kd, often an IC50 or EC50 that approximates it; ≥ and ≤ were set here for values at or beyond the usual limits of such assays.
In assay [5] the target is HLA-A*30:01. Described as above.
Assay [6] addresses HLA-B*35:01. The assay is described as above.
Assay [7] addresses HLA-A*26:01. The description is as above. Particulars: source organism: Dengue virus 2 Jamaica/1409/1983.
Assay [8] deals with HLA-A*03:01. Put plainly: IEDB peptide-MHC binding, purified MHC/direct/fluorescence; filed as Kd, often an IC50 or EC50 that approximates it; ≥ and ≤ were set here for values at or beyond the usual limits of such assays.
In assay [9] the target is HLA-A*11:01. Described as above.
The target in assay [10] is HLA-A*01:01. The description is as above.
Assay [11] deals with HLA-B*07:02. The assay is described as above. The note with it: source organism: Human herpesvirus 4 strain B95-8.
For assay [12], the target named is HLA-A*69:01. Described as above. Particulars: source organism: Human herpesvirus 4 strain B95-8.
The target in assay [13] is HLA-B*27:05. The assay is described as above. Particulars: source organism: Mammarenavirus juninense.
Where [14] appears, read: source organism: Dengue virus 3 Martinique/1243/1999.
The mark [15] stands for this setting: source organism: Zaire ebolavirus.
Setting [16] is: source organism: Sudan ebolavirus.
Setting [17] is: source organism: Vaccinia virus WR.
Where [18] appears, read: source organism: Dengue virus 4 Philippines/H241/1956.
Setting [19] is: source organism: Dengue virus 1 Brazil/97-11/1997.
[20] abbreviates: source organism: Vaccinia virus.
The mark [21] stands for this setting: source organism: Orthohantavirus hantanense.
Where [22] appears, read: source organism: Vaccinia virus Copenhagen.
The mark [23] stands for this setting: source organism: Vibrio vulnificus.

As a reminder, the Kd is the equilibrium constant for the complex coming apart. IGVLLTWIGL: the dissociation constant Kd in [1] (setting [14]) was ≥ 33000 nM. By IC50 is commonly meant the concentration at which inhibition is half-maximal. On to IHHASAPLT, for which the half-inhibitory concentration (IC50) in assay [2] (setting [15]) was ≥ 378000 nM.

For INQIIHDFI, the concentration for half-maximal inhibition (IC50) in assay [3] (setting [16]) was 2770 nM. Consider INVEYRFLV, for which the half-inhibitory concentration (IC50) in assay [3] (setting [17]) was found to be 5730 nM; in assay [2] (setting [17]), 1650 nM.

In the case of IRYQATGFG, in assay [3] (setting [15]), the half-inhibitory concentration (IC50) was 54400 nM. For ISGQSPART, the IC50 in assay [2] (setting [15]) was ≥ 137000 nM.

Turning to ITDYQGKTV, the dissociation constant (Kd) in [4] (setting [18]) is ≥ 33900 nM.

Regarding ITVIDLEPIS, the equilibrium dissociation constant (Kd) in [5] (setting [18]) amounted to 105 nM. The sequence KLGLITNTI showed an IC50 in [2] (setting [15]) of 1920 nM. That is a single-digit micromolar value. Regarding KLRCRNTEA, the Kd in [5] (setting [17]) is 14.2 nM. On to KQWFLDLPLP, for which the Kd in [5] (setting [19]) was 9590 nM.

Regarding KTKIDIIFA, the dissociation constant (Kd) in [5] (setting [20]) amounted to 10 nM. In the case of KTMTTVYIL, the Kd in assay [1] (setting [17]) worked out at 13.9 nM. On to KVKYEGAGA, for which the equilibrium dissociation constant (Kd) in assay [5] (setting [18]) came to 123 nM. With KVVRVQRPTP, the dissociation constant (Kd) in [5] (source organism: Dengue virus 2 Jamaica/1409/1983) is 122 nM. On to KWKRQLNSL, for which, in assay [5] (setting [18]), the equilibrium dissociation constant (Kd) turned out to be 290 nM. Consider LESRFTPQF, for which the half-inhibitory concentration (IC50) in assay [3] (setting [15]) was 16200 nM. This lies in the double-digit micromolar range. Regarding LFDLDEDDE, in [2] (setting [15]), the IC50 is ≥ 212000 nM. As for LIEWAMEKS, in [2] (setting [20]), the IC50 is ≥ 408000 nM. Turning to LIGKEEYVDY, in assay [4] (setting [18]), the equilibrium dissociation constant (Kd) worked out at 7910 nM. For LIGNEEFLDY, in assay [4] (setting [14]), the equilibrium dissociation constant (Kd) was determined as 1670 nM. As for LINFLLRSI, the dissociation constant (Kd) in [1] (setting [17]) was found to be 254 nM. Same read-out and setting: as for LLYFKVFGI, the figure is ≥ 37400 nM. Turning to LNDTIHLHQ, the half-maximal inhibitory concentration (IC50) in assay [3] (setting [16]) stood at 34000 nM. This counts as double-digit micromolar. For LPEYGTLGLE, the dissociation constant Kd in assay [6] (setting [14]) is 4480 nM.

LTAGLSVQQ: in assay [2] (setting [15]), the IC50 is ≥ 298000 nM. Turning to LTILIRTGLL, the Kd in assay [7] stood at 8470 nM. On the same count and under the same terms, as for LTKRFSLGM, the figure is ≥ 31800 nM.

With LTSRETALM, in [4] (setting [18]), the Kd stood at 1800 nM. For the sequence LVKLHSGKDV, in assay [5] (setting [19]), the Kd is 5940 nM. Take MALIVSIFK: the dissociation constant (Kd) in [5] (setting [20]) is 896 nM. On to MLTPINEEA, for which the IC50 in [2] (setting [15]) came to 780 nM. As for MLYILGLFK, the figures for the dissociation constant (Kd) in [8] (setting [21]) and in assay [9] (setting [21]) were 102 nM and 18.6 nM, respectively. Take MPPLRFLGED: in assay [6] (setting [18]), the equilibrium dissociation constant (Kd) came to 15200 nM. For NLTSTWVMY, the Kd in [4] (source organism: Dengue virus 4 Dominica/814669/1981) came out at 1990 nM. As for NSDEQSLEY, the Kd in [10] (source organism: Francisella tularensis subsp. holarctica LVS) was ≤ 1 nM. With QPRAPIRPI, the dissociation constant Kd in assay [11] came out at 161 nM; in assay [12], 2540 nM. On to QRKKTGKPSI, for which the Kd in assay [5] (setting [14]) stood at 1150 nM. For QTGIQRTVFF, the dissociation constant Kd in [4] (setting [18]) is ≥ 70400 nM. In turn, RDKFRKSSF registered an IC50 in assay [3] (setting [16]) of 35700 nM. Consider RLLLNRFTM, for which the dissociation constant Kd in [1] (setting [14]) was found to be 33.2 nM. In the case of RRVAHSSLY, the Kd in assay [13] stood at 170 nM. With RTENFVLSI, the equilibrium dissociation constant (Kd) in [1] (setting [17]) worked out at 1.62 nM. On to RTRYLPSLV, for which the dissociation constant Kd in [5] (setting [22]) is 0.485 nM. As to RTSFAFQAI, the dissociation constant (Kd) in assay [1] (setting [17]) was 3.78 nM. In assay [10] (source organism: Homo sapiens), SSECQGEML gave a dissociation constant (Kd) of 4760 nM. For the sequence SSNNVSSSI, in [1] (setting [22]), the dissociation constant Kd was 155 nM. For the sequence STFIMLEGE, the half-inhibitory concentration (IC50) in assay [2] (setting [22]) was ≥ 434000 nM. With STINICLPY, the dissociation constant (Kd) in [1] (setting [17]) came to 31.5 nM. TDFHERPVI registered an IC50 in [3] (source organism: Variola virus) of 408 nM. For the sequence TFKDESIFI, in [3] (setting [22]), the IC50 was 328 nM.

For the sequence TITETAATI, the results for the concentration for half-maximal inhibition (IC50) in [3] (setting [16]) and in assay [2] (setting [16]) were 48400 nM and 44900 nM, respectively. Turning to TQMGGWFQK, the Kd is 848 nM in assay [8] (setting [23]) and 43.9 nM in [9] (setting [23]). Regarding TSITQKGIIF, the equilibrium dissociation constant (Kd) in assay [4] (setting [19]) was 7350 nM.

Consider VLEENMDVEI, for which, in [4] (setting [19]), the Kd is ≥ 46500 nM. Regarding VTTWEDVPYL, in [4] (source organism: Dengue virus 3 Singapore/8120/1995), the Kd is 10200 nM.

As for WTTLLSLTF, the dissociation constant (Kd) in assay [4] (setting [19]) came out at 11200 nM.

In [3] (setting [17]), YRFLVINRL registered an IC50 of 900 nM. This lies in the sub-micromolar range.
